{"source": "paper PMC7435236", "about": "“Self‐Assembling Glycopeptide Conjugate as a Versatile Platform for Mimicking Complex Polysaccharides” (Advanced Science, 2020)", "system": "splenocytes from immunized mice", "test": "IFN‐γ production by splenocytes of immunized mice after in vitro re-stimulation (ELISA)", "type": "in vivo, C57BL/6 mice", "conditions": "spleen cells from vaccinated mice (NPs plus OVA, or OVA only), OVA stimulation 48 h in vitro", "experimental": "To further investigate the activation ability of mannosylated nanoparticles, the spleen cells from mice that vaccinated for 4 weeks with mannosylated NPs plus OVA (group 1) and OVA only (group 4) were stimulated by OVA for 48 h in vitro. The expression levels of IFN‐γ in cell media with or without OVA stimulation was measured by ELISA (Figure 6c).\nAfter immunization, the spleens of the immunized mice were removed under sterile conditions and suspended in sterile cold PBS. After centrifugation, the cell suspension was diluted to 2 × 10^6 cells mL^−1 in RPMI 1640 supplemented with 10% FBS, 100 µg mL^−1 streptomycin and 100 unit mL^−1 penicillin, and cultured overnight. After removal of the non‐adherent cells, the medium was changed, and the OVA protein in buffer and PBS buffer only were added to different wells, respectively, and cultured for 48 h. The culture media was then collected and diluted for the ELISA tests. Following the instructions of ELISA kit, the samples, anti‐IFN‐γ antibody, and chromogenic substrates were added in order. The corresponding OD450 was measured by Multiskan GO (Thermo Scientific) microplate reader."}
{"molecule": "OVA: Ovalbumin, model antigen for evaluation of vaccine adjuvants (protein, UniProt P01012 2-386, looked up) Ovalbumin: GSIGAASMEFCFDVFKELKVHHANENIFYCPIAIMSALAMVYLGAKDSTRTQINKVVRFDKLPGFGDSIEAQCGTSVNVHSSLRDILNQITKPNDVYSFSLASRLYAEERYPILPEYLQCVKELYRGGLEPINFQTAADQARELINSWVESQTNGIIRNVLQPSSVDSQTAMVLVNAIVFKGLWEKAFKDEDTQAMPFRVTEQESKPVQMMYQIGLFRVASMASEKMKILELPFASGTMSMLVLLPDEVSGLEQLESIINFEKLTEWTSSNVMEERKIKVYLPRMKMEEKYNLTSVLMAMGITDVFSSSANLSGISSAESLKISQAVHAAHAEINEAGREVVGSAEAGVDAASVSEEFRADHPFLFCIKHIATNAVLFFGRCVSP", "values": [{"measurement": "IFN‐γ expression in cell media", "value": "Upregulation of IFN‐γ"}]}
